In patent US20210290602A1 one finds SNAP-25 degradation half-life, cycloheximide chase in iNs and SNAP-25 half-life after L1 or Dfx treatment against control, cycloheximide chase in ANCL iNs data, which are given here for one substance.

The target of this experiment is SNAP-25 (endogenous, human induced neurons) (human) (UniProt P60880). Nature of the experiment: cell-based or functional assay.
SNAP-25 (endogenous, human induced neurons) (human), sequence (P60880 whole entry): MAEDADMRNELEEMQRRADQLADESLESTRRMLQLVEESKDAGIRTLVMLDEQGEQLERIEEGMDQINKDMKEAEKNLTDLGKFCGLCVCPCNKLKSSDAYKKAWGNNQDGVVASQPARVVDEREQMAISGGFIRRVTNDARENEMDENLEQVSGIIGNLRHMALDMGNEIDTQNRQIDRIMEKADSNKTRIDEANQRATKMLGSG

“endogenous CSPα of ANCL patient-derived induced neurons (iNs), which co-express the CSPα^WT and CSPα^L116Δ alleles (from UniProt Q9H3Z4 1-198; Q9H3Z4 1-198)” gave an SNAP-25 degradation half-life, cycloheximide chase in iNs of 12.5 h and an SNAP-25 half-life after L1 or Dfx treatment against control, cycloheximide chase in ANCL iNs of 2 fold.
